Our source for the abundance fitness values is the Human Domainome abundance scans (Beltran et al. 2025).

± gives the uncertainty stated by the source.

B1: Proto-oncogene vav, residues 782 to 842; numbered along this chain, P15498 (parent)
chain: KYFGTAKARYDFCARDRSELSLKEGDIIKILNKKGQQGWWRGEIYGRVGWFPANYVEEDYS

Variants of B1 are the subject of the series. Nature of the series: abundance fitness (aPCA) (normalised: wild type 0, dead -1); higher = more abundant; growth selection in yeast, the domain comes from the species named. The conditions noted are these: Homo sapiens.
As for KYFGTAKARYDFCARDRSELSLKEGDIIKILNKNGQQGWWRGEIYGRVGWFPANYVEEDYS [K34N], the abundance fitness was 0.068 ± 0.15.

For KYFGTAKARYDFCARDRSELSLKEGDIIKILNKSGQQGWWRGEIYGRVGWFPANYVEEDYS [K34S], the abundance fitness is -0.05 ± 0.085.

KYFGTAKARYDFCARDRSELSLKEGDIIKILNKKGQQGWWRGEIYGRVGWFPANYVREDYS [E57R]: the abundance fitness is -0.123 ± 0.071.

Consider KYFGTAKARYDFCARDRSELSLKEGDIIKILNKKGQQGWQRGEIYGRVGWFPANYVEEDYS [W40Q], for which the abundance fitness was -0.876 ± 0.46.

With KYFGTAKARYDFCARDRSELSLKEGDIIKILNKKGQQGWRRGEIYGRVGWFPANYVEEDYS [W40R], the abundance fitness was -0.948 ± 0.19.

Take KYFGTAKARYDFCARDRSELSLKEGDIIKILNKKGQQGWERGEIYGRVGWFPANYVEEDYS [W40E]: the abundance fitness was -0.924 ± 0.28.

Regarding KYFGTAKARYDFCARDRSELSLKEGDIIKILNKKGQQGWKRGEIYGRVGWFPANYVEEDYS [W40K], the abundance fitness was -0.362 ± 0.35.

With KYFGTAKARYDFCARDRSELSLKEGDIIKILNKKGQQGWFRGEIYGRVGWFPANYVEEDYS [W40F], the abundance fitness was -0.303 ± 0.21.

For KYFGTAKARYDFCARDRSELSLKEGDIIKILNKKGQQGWWRGEIYGRVGWFPANYVEEFYS [D59F], the abundance fitness is -0.015 ± 0.11.

With KYFGTAKARYDFCARDRSELSLKEGDIIKILNKKGQQGWWRGEIYGRVGWFPANYVEEWYS [D59W], the abundance fitness came to 0.048 ± 0.15.

In the case of KYFGTAKAIYDFCARDRSELSLKEGDIIKILNKKGQQGWWRGEIYGRVGWFPANYVEEDYS [R9I], the abundance fitness is -0.296 ± 0.13.

For the variant KYFGTAKAGYDFCARDRSELSLKEGDIIKILNKKGQQGWWRGEIYGRVGWFPANYVEEDYS [R9G], the abundance fitness was -0.75 ± 0.12.

Consider KYFGTAKATYDFCARDRSELSLKEGDIIKILNKKGQQGWWRGEIYGRVGWFPANYVEEDYS [R9T], for which the abundance fitness was -0.086 ± 0.096.

In the case of KYFGTAKARYDFCARDRSELSLKEGDIIKILHKKGQQGWWRGEIYGRVGWFPANYVEEDYS [N32H], the abundance fitness is -0.02 ± 0.15.

As to KYFGTAKARYDFCARDRSELSLKEGDIIKILRKKGQQGWWRGEIYGRVGWFPANYVEEDYS [N32R], the abundance fitness was -0.255 ± 0.063.

For KYFGTAKARYDFCARDRSELSLKEGDIIKILKKKGQQGWWRGEIYGRVGWFPANYVEEDYS [N32K], the abundance fitness is -0.221 ± 0.12.

In the case of KYFGTAKARYDFCARDHSELSLKEGDIIKILNKKGQQGWWRGEIYGRVGWFPANYVEEDYS [R17H], the abundance fitness was -0.076 ± 0.15.

Turning to KYFGTAKARYDFCARDASELSLKEGDIIKILNKKGQQGWWRGEIYGRVGWFPANYVEEDYS [R17A], the abundance fitness was found to be 0.056 ± 0.072.

With KYFGTAKARYDFCARDRSELSLKEADIIKILNKKGQQGWWRGEIYGRVGWFPANYVEEDYS [G25A], the abundance fitness is -0.721 ± 0.18.

Regarding KYFGTAKARYDFCARDRSELSLKEHDIIKILNKKGQQGWWRGEIYGRVGWFPANYVEEDYS [G25H], the abundance fitness is -0.975 ± 0.34.

In the case of KYFGTAKARYDFCARDRSELSLKEGDIIKILNKKGQQGWWRTEIYGRVGWFPANYVEEDYS [G42T], the abundance fitness was -0.825 ± 0.16.

In the case of KYFGTAKARYDFCARDRSELSLKEGDIIKILNKKGQQGWWRGEIYGQVGWFPANYVEEDYS [R47Q], the abundance fitness was -0.065 ± 0.069.

In the case of KYFGTAKARYDFCARDRSELSLKEGDIIKILNKKGQQGWWRGEIYGVVGWFPANYVEEDYS [R47V], the abundance fitness is -0.367 ± 0.049.

Turning to KYFGTAKARYDFCARDRSELSLKEGDIIKILNKKVQQGWWRGEIYGRVGWFPANYVEEDYS [G35V], the abundance fitness was -0.412 ± 0.076.

As for KYFGTAKARYDFCARDRSELSLKEGDIIMILNKKGQQGWWRGEIYGRVGWFPANYVEEDYS [K29M], the abundance fitness was -0.095 ± 0.099.

As for KYFGTAKARYDFCARDRSELSLKEGDIIQILNKKGQQGWWRGEIYGRVGWFPANYVEEDYS [K29Q], the abundance fitness is -0.265 ± 0.1.

On to KYFGTAKARYDFCARDRSELSLKEGDIIKILNKKGQQGWWRGEIYGRVGWFPANYVEEDGS [Y60G], for which the abundance fitness was -0.039 ± 0.085.

As to KYFGTAKARYDFCARDRSELSLKEGDIIKILNKKGQQGWWRGEIYGRVGWFPANYVEEDSS [Y60S], the abundance fitness was 0.016 ± 0.071.

As for KYFGTAKARYDFCARDRSELSLKEGDIIKILNKKGQQGWWRGEIYGRVKWFPANYVEEDYS [G49K], the abundance fitness was -0.92 ± 0.36.

Regarding KYFGTAKARYDFCARDRSELSLKEGDIIKILNKKGQQGWWRGEIYGRVRWFPANYVEEDYS [G49R], the abundance fitness was -0.998 ± 0.27.

Turning to KYFGTAKARYDFCARDRSELSLKEGDIIKILNKKGQQGWWRGEIYGRVGWSPANYVEEDYS [F51S], the abundance fitness is -0.857 ± 0.15.

For the variant KYFGTAKARYDFCARDRSELSLKEGDIIKILNKKGQQGWWRGEIYGRVGWEPANYVEEDYS [F51E], the abundance fitness is -0.913 ± 0.25.

On to KYFGTAKARYDFCARDRSEESLKEGDIIKILNKKGQQGWWRGEIYGRVGWFPANYVEEDYS [L20E], for which the abundance fitness was -0.852 ± 0.46.

Regarding VYFGTAKARYDFCARDRSELSLKEGDIIKILNKKGQQGWWRGEIYGRVGWFPANYVEEDYS [K1V], the abundance fitness was -0.241 ± 0.12.

On to KYHGTAKARYDFCARDRSELSLKEGDIIKILNKKGQQGWWRGEIYGRVGWFPANYVEEDYS [F3H], for which the abundance fitness is -0.396 ± 0.13.

With KYFGTAKARYDFCARDRSWLSLKEGDIIKILNKKGQQGWWRGEIYGRVGWFPANYVEEDYS [E19W], the abundance fitness was -0.445 ± 0.15.

Take KYFGTAKARYDFCARDRSELRLKEGDIIKILNKKGQQGWWRGEIYGRVGWFPANYVEEDYS [S21R]: the abundance fitness was -0.742 ± 0.13.

With KRFGTAKARYDFCARDRSELSLKEGDIIKILNKKGQQGWWRGEIYGRVGWFPANYVEEDYS [Y2R], the abundance fitness was -0.226 ± 0.083.

For KYFGTAKARYDFCARDRSELSLKEGDIIKALNKKGQQGWWRGEIYGRVGWFPANYVEEDYS [I30A], the abundance fitness is -0.552 ± 0.12.

Turning to KYFGTAKARYDFCARDRSELSLKEGDIIKILNKKGQQGWWRGEIYGRVGAFPANYVEEDYS [W50A], the abundance fitness was -0.649 ± 0.17.

For KYFGTAKARYDFCARDRSELSLKEGDIIKILNKKGQQGWWRGEIYGRVGMFPANYVEEDYS [W50M], the abundance fitness was -0.387 ± 0.12.

For KYFGTAKARYDFCARDRSELSLKEGDIIKILNKKGQQGWWRGEIYGRVGWFPAWYVEEDYS [N54W], the abundance fitness was -0.091 ± 0.096.

For KYFGTAKARYDFCARDRSELSLKEGDIIKILNKKGQQGWWNGEIYGRVGWFPANYVEEDYS [R41N], the abundance fitness was -0.375 ± 0.15.

As to KYFGTAKARYDFCARDRSELSLKEGLIIKILNKKGQQGWWRGEIYGRVGWFPANYVEEDYS [D26L], the abundance fitness is -0.814 ± 0.13.
